Source: IntAct's records for PubMed 16908849

B1: Tumor protein 63 (Homo sapiens), Q9H3D4 (parent)
chain: MNFETSRCATLQYCPDPYIQRFVETPAHFSWKESYYRSTMSQSTQTNEFLSPEVFQHIWDFLEQPICSVQPIDLNFVDEPSEDGATNKIEISMDCIRMQDSDLSDPMWPQYTNLGLLNSMDQQIQNGSSSTSPYNTDHAQNSVTAPSPYAQPSSTFDALSPSPAIPSNTDYPGPHSFDVSFQQSSTAKSATWTYSTELKKLYCQIAKTCPIQIKVMTPPPQGAVIRAMPVYKKAEHVTEVVKRCPNHELSREFNEGQIAPPSHLIRVEGNSHAQYVEDPITGRQSVLVPYEPPQVGTEFTTVLYNFMCNSSCVGGMNRRPILIIVTLETRDGQVLGRRCFEARICACPGRDRKADEDSIRKQQVSDSTKNGDGTKRPFRQNTHGIQMTSIKKRRSPDDELLYLPVRGRETYEMLLKIKESLELMQYLPQHTIETYRQQQQQQHQHLLQKQTSIQSPSSYGNSSPPLNKMNSMNKLPSVSQLINPQQRNALTPTTIPDGMGANIPMMGTHMPMAGDMNGLSPTQALPPPLSMPSTSHCTPPPPYPTDCSIVSFLARLGCSSCLDYFTTQGLTTIYQIEHYSMDDLASLKIPEQFRHAIWKGILDHRQLHEFSSPSHLLRTPSSASTVSVGSSETRGERVIDAVRFTLRQTISFPPRDEWNDFNFDMDARRNKQQRIKEEGE

Variants of: B1
Settings: with itch_human ITCH
For Y543F, the “effect of a mutation on the interaction” value was “disrupting interaction strength”.
